This experiment has as its target T1, SARS-CoV-2 S1 RBD His-tagged protein (SARS-CoV-2, UniProt P0DTC2 319-541).
T1 construct: domain: S1 RBD; also called rSARS-CoV-2 S1 RBD; SARS-CoV2 RBD
In words: direct ELISA, HEK293 transfection medium.

From patent US20240190947A1 (BIO TECHNE, published 2024) come the findings set out here.

B1: 70009-2 VHH clone (VHH)
VHH: QLQLVESGGGLVQPGGSLRLSCAASTLTLNSYAIGWFRQAPGKEREAVSCTSSSGDMTYYTNSVKGRFTISRDNAKNTVYLQMSRLKPDDTAVYYCAAVLLEYGYVCSHPNEYDYWGQGTQVTVSS
Turning to B1, the binding result is recorded as “binds”.
